How the values were obtained:
[1] = target: c-Myc:Max heterodimer (Homo sapiens, UniProt P01106-1;P61244-2 P01106-1:1-439,P61244-2:1-151); assay: EMSA; supershifted by anti-Myc and anti-Max; 3 mM MgCl2, 50 mM KCl, RT; 5-fold excess cold CM-1 competes; conditions: label: 32P
Protocol: The DNA-binding reaction was allowed to proceed at room temperature for 10 minutes.
FIG. 7A: the ability of in vitro translated Myc and Max proteins to bind to the CM-1 oligonucleotide (CACGTG core consensus) was assessed by electrophoretic mobility shift assay. […] Lysates were incubated with ^32P-labeled CM-1 prior to resolution in a 5 percent acrylamide gel. In experiments where antibodies were added, affinity purified antibody (1 mg) was added after formation of the nucleoprotein complex to minimize steric interference. To block the antibody effect, cognate immunogen (1 mg) was added.

[2] = target: Mad-1-His6 full length (Homo sapiens, UniProt Q05195 SEQ:1-221); assay: EMSA; no Max present; conditions: tags: C-terminal His6 (pET11D); label: 32P
[3] = target: GST-C92Myc:Max heterodimer (Homo sapiens, UniProt P01106;P61244-2 P01106:363-454,P61244-2:1-151); assay: EMSA; heterodimer favored over Max:Max; conditions: tags: GST on Myc; label: 32P
Sequence of GST-C92Myc:Max heterodimer (P01106 363-454, chain 1 of 2): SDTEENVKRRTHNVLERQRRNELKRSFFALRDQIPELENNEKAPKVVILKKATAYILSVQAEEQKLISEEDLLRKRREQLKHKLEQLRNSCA
Sequence of GST-C92Myc:Max heterodimer (P61244 other isoform, or with tags, fused parts or gaps, chain 2 of 2): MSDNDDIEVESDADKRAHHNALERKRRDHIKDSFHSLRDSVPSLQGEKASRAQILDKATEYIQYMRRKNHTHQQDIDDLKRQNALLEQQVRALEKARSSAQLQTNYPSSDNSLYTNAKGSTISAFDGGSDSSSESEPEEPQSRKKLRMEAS
Protocol: The ability of Mad-1 to bind DNA and interact with Max and Myc was examined by the electrophoretic mobility shift assay. […] Non-fusion GST protein was used as a control. […] As a control, the specificity of the electrophoretic mobility shift was assayed by including antibodies to either Max (αMax), GST (αGST), or Myc (αMyc) to the binding reaction. The activity of these antibodies was inhibited by adding the appropriate immunoglobulin to the binding reaction ("+block"). The lanes marked "–" had no additional protein present in the binding reaction.
The ability of Mad-1 to bind DNA and interact with Max and Myc was examined by the EMSA. […] In each experiment the specificity of the mobility shift was assayed by including antibodies to either Max((xMax), GST((xGST) or Myc ((xMyc) were added to the binding reaction.

[4] = target: c-Myc deltaN100:Max (Homo sapiens, UniProt P01106-1;P61244-2 P01106-1:101-439,P61244-2:1-151, c-Myc deletion of N-terminal 100 aa); assay: EMSA; conditions: label: 32P
Sequence of c-Myc deltaN100:Max (P01106 116-454, stated change not applied, chain 1 of 2): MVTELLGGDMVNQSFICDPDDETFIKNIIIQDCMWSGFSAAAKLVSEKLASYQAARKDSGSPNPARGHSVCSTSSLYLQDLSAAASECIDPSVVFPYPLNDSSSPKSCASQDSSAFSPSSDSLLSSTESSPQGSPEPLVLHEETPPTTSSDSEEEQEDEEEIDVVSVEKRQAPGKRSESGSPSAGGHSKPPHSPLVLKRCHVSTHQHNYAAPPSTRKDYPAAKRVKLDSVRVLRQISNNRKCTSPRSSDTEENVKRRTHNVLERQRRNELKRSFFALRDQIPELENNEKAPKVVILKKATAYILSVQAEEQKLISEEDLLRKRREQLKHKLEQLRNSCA
Sequence of c-Myc deltaN100:Max (P61244 other isoform, or with tags, fused parts or gaps c-Myc deletion of N-terminal 100 aa | mutant, chain 2 of 2): as the sequence (P61244 other isoform, or with tags, fused parts or gaps, chain 2 of 2) above
Protocol: FIG. 7A: the ability of in vitro translated Myc and Max proteins to bind to the CM-1 oligonucleotide (CACGTG core consensus) was assessed by electrophoretic mobility shift assay. […] Lysates were incubated with ^32P-labeled CM-1 prior to resolution in a 5 percent acrylamide gel. In experiments where antibodies were added, affinity purified antibody (1 mg) was added after formation of the nucleoprotein complex to minimize steric interference. To block the antibody effect, cognate immunogen (1 mg) was added. […] CM-1 oligonucleotide alone (probe) and unprogrammed reticulocyte lysate (RL) served as background controls. FIG. 7B: The specificity of the Myc-Max shift was tested by competition with 5-, 50-, and 500-fold excess of unlabeled oligonucleotide. […] FIG. 7C: Requirements for the formation of a nucleoprotein complex. Various c-Myc mutants (see FIG. 4 discussion for abbreviations) were assayed for their ability to bind CM-1 in association with Max.
To ascertain whether the association of Myc and Max in a nucleoprotein complex required the same sequences, some of the c-Myc mutants were examined for their ability to bind to CM-1 in a complex with Max.

Sequence of Mad-1-His6 full length (Q05195 whole entry): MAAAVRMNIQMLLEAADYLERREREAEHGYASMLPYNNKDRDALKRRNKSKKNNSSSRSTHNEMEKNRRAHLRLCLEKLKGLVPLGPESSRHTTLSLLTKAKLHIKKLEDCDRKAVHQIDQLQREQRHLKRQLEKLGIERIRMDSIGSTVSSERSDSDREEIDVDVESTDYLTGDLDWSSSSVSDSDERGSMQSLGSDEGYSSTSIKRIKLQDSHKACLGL
Sequence of c-Myc:Max heterodimer (P01106 16-454, chain 1 of 2): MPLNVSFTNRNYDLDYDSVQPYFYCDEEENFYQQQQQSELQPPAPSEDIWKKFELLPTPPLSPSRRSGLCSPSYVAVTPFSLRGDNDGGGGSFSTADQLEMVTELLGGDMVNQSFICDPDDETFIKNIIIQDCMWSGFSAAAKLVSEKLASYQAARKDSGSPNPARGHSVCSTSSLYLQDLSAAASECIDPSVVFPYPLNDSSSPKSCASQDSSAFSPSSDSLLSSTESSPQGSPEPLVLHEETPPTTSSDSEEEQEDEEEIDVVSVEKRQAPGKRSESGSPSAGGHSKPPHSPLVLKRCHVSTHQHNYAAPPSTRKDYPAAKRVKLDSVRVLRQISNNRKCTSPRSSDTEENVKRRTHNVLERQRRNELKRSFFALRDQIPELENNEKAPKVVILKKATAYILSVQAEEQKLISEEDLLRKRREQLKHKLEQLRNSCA
Sequence of c-Myc:Max heterodimer (P61244 other isoform, or with tags, fused parts or gaps, chain 2 of 2): as the sequence (P61244 other isoform, or with tags, fused parts or gaps, chain 2 of 2) above

B1: CM-1 (dsDNA)
DNA 1: CCCCCACCACGTGGTGCCTGA
DNA 2: TCAGGCACCACGTGGTGGGGG
- binding result [1]: binds
- binding result [2]: no binding
- binding result [3]: binds
- binding result [4]: binds

Source: patent US5624818, “Nucleic acids encoding regulatory proteins that dimerize with Mad or Max” (Fred Hutchinson Cancer Research Center)
